# T1: Rat GAL-3 (rat, UniProt P08699 2-262, limits assumed)
# T1 construct: also called rat Galectin-3
# T1 sequence (looked up): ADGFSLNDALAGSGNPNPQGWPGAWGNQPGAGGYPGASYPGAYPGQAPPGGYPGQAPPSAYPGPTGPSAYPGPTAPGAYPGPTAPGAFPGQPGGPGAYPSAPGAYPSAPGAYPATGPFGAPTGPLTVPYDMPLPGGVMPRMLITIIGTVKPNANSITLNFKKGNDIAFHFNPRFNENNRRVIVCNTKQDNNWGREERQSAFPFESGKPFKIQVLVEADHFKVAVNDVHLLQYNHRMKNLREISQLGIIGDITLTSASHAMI
# T2: Gal3-e
# T2 construct: also called Galectin3-e; Gal-3 peptide
# T2 peptide: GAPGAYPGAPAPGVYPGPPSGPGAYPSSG
# Tests used:
# human Galectin-3 [1] = molecular target: T3, human Galectin-3 (human, UniProt P17931 2-250, limits assumed); test: SPR
# T3 construct: also called Human GAL-3; hGal-3
# Mouse GAL-3 = molecular target: T4, Mouse GAL-3 (mouse, UniProt P16110 2-264, limits assumed); test: SPR
# T4 construct: also called mouse Galectin-3
# Rat GAL-3 = molecular target: T1, Rat GAL-3; test: SPR
# Gal3-e = molecular target: T2, Gal3-e; test: size exclusion chromatography of the mixture
# Protocol: For X-ray diffraction, first we developed a homogeneous Gal3-e-Fab complex through Size Exclusion Chromatography (SEC) and analyzed the complex through crystallization screening and optimization. However, no diffraction patterns but only large block- and rod-shaped crystals were observed by multi-rounds of optimization. Screened commercial kits included crystal screens, structure screens, Index, JCSG plus, PEG/Ion1&2, ProPlex screens, and additive screens.
# Excess Gal3-e were incubated with the Fab on ice for 30 minutes. After the incubation, Gal3-e-Fab complex was isolated from the mixture using SEC (Column: Superdex 75 increase 10/300).
# human Galectin-3 [2] = molecular target: T3, human Galectin-3; test: ELISA on human Galectin-3
# T3 sequence (P17931 2-250 limits assumed): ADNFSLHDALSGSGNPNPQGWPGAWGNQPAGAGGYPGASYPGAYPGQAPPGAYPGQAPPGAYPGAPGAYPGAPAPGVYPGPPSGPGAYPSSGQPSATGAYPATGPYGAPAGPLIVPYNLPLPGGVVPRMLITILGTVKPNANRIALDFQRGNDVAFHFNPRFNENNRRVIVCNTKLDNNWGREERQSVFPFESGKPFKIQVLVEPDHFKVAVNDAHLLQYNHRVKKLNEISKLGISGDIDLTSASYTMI
# T4 sequence (P16110 2-264 limits assumed): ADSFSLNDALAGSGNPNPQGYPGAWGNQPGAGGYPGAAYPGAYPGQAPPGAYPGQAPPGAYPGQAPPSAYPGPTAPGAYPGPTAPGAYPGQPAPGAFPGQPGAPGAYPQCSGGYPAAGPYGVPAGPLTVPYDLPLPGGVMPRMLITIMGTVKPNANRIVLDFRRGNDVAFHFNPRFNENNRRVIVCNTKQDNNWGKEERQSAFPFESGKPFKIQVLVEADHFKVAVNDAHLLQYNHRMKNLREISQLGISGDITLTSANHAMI
binder,measurement,setting,value
"SIF001 (antibody, V domains shown, Humanized monoclonal antibody raised against human GAL-3; also called SIF001 Ab; SF001) VH: QVQLVQSGSELKKPGASVKVSCKASGYTFTNYGMNWVRQAPGQGLEWMGWINTYTGEPTYADDFKGRFVFSLDTSVSTAYLQISSLKNEDMAVYFCARYAMDYWGQGTLVTVSS VL: EAVVTQEPSLTVSPGGTVTLTCRSSTGAVTTSNYANWVQQKPGQAFTGLIGGTSNRAPGTPARFSGSLLGDKAALTLLGAQPEDEAEYFCALWYSTHYVFGGGTKLTVL",Kd,human Galectin-3 [1],71.5 nM
same,Kd,Mouse GAL-3,10.9 nM
same,Kd,Rat GAL-3,11.7 nM
"Fab of the SIF001 antibody (Fab, V domains shown) VH: QVQLVQSGSELKKPGASVKVSCKASGYTFTNYGMNWVRQAPGQGLEWMGWINTYTGEPTYADDFKGRFVFSLDTSVSTAYLQISSLKNEDMAVYFCARYAMDYWGQGTLVTVSS VL: EAVVTQEPSLTVSPGGTVTLTCRSSTGAVTTSNYANWVQQKPGQAFTGLIGGTSNRAPGTPARFSGSLLGDKAALTLLGAQPEDEAEYFCALWYSTHYVFGGGTKLTVL",binding result,Gal3-e,binds
"SIF002 (antibody, V domains shown) VH: EVQLLESGGGLVQPGGSLRLSCAASGFTFSRFWMSWVRQAPGKGLEWVSEISPDSNTIDLTPSLKDRFTISRDNSKNTLYLQMNSLRAEDTAVYYCAKPYYGYYWGQGTLVTVSS VL: DIVMTQSPDSLAVSLGERATMNCRSSQSLFSSTNQKNYLTWYQQKPGQPPKLLIYWASSRESGVPDRFSGSGSGTDFTLTISSLQAEDVAVYYCQNDYTSPFTFGQGTRLEIK",binding result,human Galectin-3 [2],binds
